Km, inhibition and kcat data for seven molecules are collected here from PMC10455477, “The Roles of Coenzyme A Binding Pocket Residues in Short and Medium Chain Acyl-CoA Synthetases” (Life, 2023).

The test system of one data set is T1, AcsMt.
T1 construct: gene acs; recombinant, E. coli Rosetta Blue (DE3) placI; His-Trap purified
Nature of the data set: hydroxamate assay, A540. Particulars: acetate and MgATP saturating; 65 °C; apparent Km. Format: biochemical, Methanothermobacter thermautotrophicus. From the text: hydroxamate assay, A540 on AcsMt

The next data set addresses T2, MacsMa (Methanosarcina acetivorans, UniProt Q8TLW1).
T2 construct: gene MA_2912; recombinant, E. coli Rosetta Blue (DE3) placI; His-Trap purified
The data set can be described thus: inhibition of propionyl-adenylate synthetase activity. The format is biochemical. Particulars: read-out: % inhibition at 15 mM.

Substrate in data set [1]: CC(C)(COP(=O)(O)OP(=O)(O)OC[C@H]1O[C@@H](n2cnc3c(N)ncnc32)[C@H](O)[C@@H]1OP(=O)(O)O)[C@@H](O)C(=O)NCCC(=O)NCCS
Nature of the data set: purified protein. The following applies: 2-methylbutyrate and ATP saturating, pH 7.5, 55 °C, apparent Km.

Substrate in data set [2]: CCC(=O)O
Nature of the data set: purified protein. The following applies: no CoA, ATP saturating, 55 °C, apparent Km.

Substrate in data set [3]: Nc1ncnc2c1ncn2[C@@H]1O[C@H](COP(=O)(O)OP(=O)(O)OP(=O)(O)O)[C@@H](O)[C@H]1O
The data set can be described thus: purified protein. The following applies: 2-methylbutyrate and CoA saturating, pH 7.5, 55 °C, apparent Km.

Substrate in data set [4]: CC(C)(COP(=O)(O)OP(=O)(O)OC[C@H]1O[C@@H](n2cnc3c(N)ncnc32)[C@H](O)[C@@H]1OP(=O)(O)O)[C@@H](O)C(=O)NCCC(=O)NCCS
Nature of the data set: 2-methylbutyryl-CoA synthetase activity. Particulars: 2-methylbutyrate and ATP saturating, pH 7.5, 55 °C, apparent Km. The format is biochemical, Methanosarcina acetivorans. From the text: 2-methylbutyryl-CoA synthetase activity on MacsMa

Usually Km stands for the substrate concentration at which the rate is half of its maximum. Broadly, the inhibition is the share of the control response that was lost under treatment. A word on the kcat: it is the number of substrate molecules converted per active site and unit of time at saturation.

Take `CC(C)(COP(=O)(O)OP(=O)(O)OC[C@H]1O[C@@H](n2cnc3c(N)ncnc32)[C@H](O)[C@@H]1O)[C@@H](O)C(=O)NCCC(=O)NCCS` [3′-dephospho CoA]: the Michaelis constant (Km) in the data set with AcsMt was found to be 2160 ± 500 µM.
`CC(C)(COP(=O)(O)OP(=O)(O)OC[C@H]1O[C@@H](n2cnc3c(N)ncnc32)[C@H](O)[C@@H]1OP(=O)(O)O)[C@@H](O)C(=O)NCCC(=O)NCCS` [CoA]: at MacsMa, the inhibition at 15000 µM was ~40%.

B1: MacsMa (Methanosarcina acetivorans C2A) (protein)
chain: MTSLLSQFVSKTDFESYEDFQENFKILVPENFNFAYDVVDVYARDSPEKLAMIWCDDYGNEKIFTFKDLKYYSDKAANFFVKHGIGKGDYVMLTLKSRYDFWYCMLGLHKLGAIAVPATHMLKTRDIVYRIEKAGLKMIVCIAEDDVPEQVDEAHAECGDIPLKKAKVGGDVLEGWIDFRKELEESSPIFERPTGEVSTKNEDICLVYFSSGTAGFPKMVEHDNTYPLGHILTAKYWQNVEDDGLHYTVADSGWGKCVWGKLYGQWIAGCAVFVYDYDRFEAKNMLEKASKYGVTTFCAPPTIYRFLIKEDLSHYNFSTLKYAVVAGEPLNPEVFNRFLEFTGIKLMEGFGQTETVVTIATFPWMEPKPGSIGKPTPGYKIELMDRDGRLCEVGEEGEIVINTMEGKPVGLFVHYGKDPERTEETWHDGYYHTGDMAWMDEDGYLWFVGRADDIIKTSGYKVGPFEVESALIQHPAVLECAITGVPDPVRGQVIKATIVLTKDYTPSDSLKNELQDHVKNVTAPYKYPRIIEFVPELPKTISGKIRRVEIRDKDQSQ
In the case of B1, the Km was 4090 ± 450 µM in the data set “purified protein [1]”, 29100 ± 300 µM in “purified protein [2]” and 4210 ± 110 µM in the data set “purified protein [3]”. Moreover, the values for the kcat in the data set “purified protein [1]” and in “purified protein [2]” were 2.15 ± 0.1 s⁻¹ and 10.67 ± 1.34 s⁻¹, respectively.

B2: MacsMa (Methanosarcina acetivorans C2A; K464R) (protein)
chain: MTSLLSQFVSKTDFESYEDFQENFKILVPENFNFAYDVVDVYARDSPEKLAMIWCDDYGNEKIFTFKDLKYYSDKAANFFVKHGIGKGDYVMLTLKSRYDFWYCMLGLHKLGAIAVPATHMLKTRDIVYRIEKAGLKMIVCIAEDDVPEQVDEAHAECGDIPLKKAKVGGDVLEGWIDFRKELEESSPIFERPTGEVSTKNEDICLVYFSSGTAGFPKMVEHDNTYPLGHILTAKYWQNVEDDGLHYTVADSGWGKCVWGKLYGQWIAGCAVFVYDYDRFEAKNMLEKASKYGVTTFCAPPTIYRFLIKEDLSHYNFSTLKYAVVAGEPLNPEVFNRFLEFTGIKLMEGFGQTETVVTIATFPWMEPKPGSIGKPTPGYKIELMDRDGRLCEVGEEGEIVINTMEGKPVGLFVHYGKDPERTEETWHDGYYHTGDMAWMDEDGYLWFVGRADDIIKTSGYRVGPFEVESALIQHPAVLECAITGVPDPVRGQVIKATIVLTKDYTPSDSLKNELQDHVKNVTAPYKYPRIIEFVPELPKTISGKIRRVEIRDKDQSQ
notes: recombinant, E. coli Rosetta Blue (DE3) placI; His-Trap purified
With B2, in data set [4], the Km turned out to be 1380 ± 140 µM and the kcat worked out at 0.46 ± 0.1 s⁻¹.

B3: MacsMa (Methanosarcina acetivorans C2A; K464A) (protein)
chain: MTSLLSQFVSKTDFESYEDFQENFKILVPENFNFAYDVVDVYARDSPEKLAMIWCDDYGNEKIFTFKDLKYYSDKAANFFVKHGIGKGDYVMLTLKSRYDFWYCMLGLHKLGAIAVPATHMLKTRDIVYRIEKAGLKMIVCIAEDDVPEQVDEAHAECGDIPLKKAKVGGDVLEGWIDFRKELEESSPIFERPTGEVSTKNEDICLVYFSSGTAGFPKMVEHDNTYPLGHILTAKYWQNVEDDGLHYTVADSGWGKCVWGKLYGQWIAGCAVFVYDYDRFEAKNMLEKASKYGVTTFCAPPTIYRFLIKEDLSHYNFSTLKYAVVAGEPLNPEVFNRFLEFTGIKLMEGFGQTETVVTIATFPWMEPKPGSIGKPTPGYKIELMDRDGRLCEVGEEGEIVINTMEGKPVGLFVHYGKDPERTEETWHDGYYHTGDMAWMDEDGYLWFVGRADDIIKTSGYAVGPFEVESALIQHPAVLECAITGVPDPVRGQVIKATIVLTKDYTPSDSLKNELQDHVKNVTAPYKYPRIIEFVPELPKTISGKIRRVEIRDKDQSQ
notes: as for B2
Consider B3, for which, in data set [4], the Km is 2190 ± 180 µM and the kcat amounted to 0.55 ± 0.03 s⁻¹.

B4: MacsMa (Methanosarcina acetivorans C2A; G462A) (protein)
chain: MTSLLSQFVSKTDFESYEDFQENFKILVPENFNFAYDVVDVYARDSPEKLAMIWCDDYGNEKIFTFKDLKYYSDKAANFFVKHGIGKGDYVMLTLKSRYDFWYCMLGLHKLGAIAVPATHMLKTRDIVYRIEKAGLKMIVCIAEDDVPEQVDEAHAECGDIPLKKAKVGGDVLEGWIDFRKELEESSPIFERPTGEVSTKNEDICLVYFSSGTAGFPKMVEHDNTYPLGHILTAKYWQNVEDDGLHYTVADSGWGKCVWGKLYGQWIAGCAVFVYDYDRFEAKNMLEKASKYGVTTFCAPPTIYRFLIKEDLSHYNFSTLKYAVVAGEPLNPEVFNRFLEFTGIKLMEGFGQTETVVTIATFPWMEPKPGSIGKPTPGYKIELMDRDGRLCEVGEEGEIVINTMEGKPVGLFVHYGKDPERTEETWHDGYYHTGDMAWMDEDGYLWFVGRADDIIKTSAYKVGPFEVESALIQHPAVLECAITGVPDPVRGQVIKATIVLTKDYTPSDSLKNELQDHVKNVTAPYKYPRIIEFVPELPKTISGKIRRVEIRDKDQSQ
notes: as for B2
Consider B4, for which, in data set [4], the Km was 2090 ± 60 µM and the catalytic constant (kcat) came out at 0.41 ± 0.01 s⁻¹.

B5: MacsMa (Methanosarcina acetivorans C2A; K522R) (protein)
chain: MTSLLSQFVSKTDFESYEDFQENFKILVPENFNFAYDVVDVYARDSPEKLAMIWCDDYGNEKIFTFKDLKYYSDKAANFFVKHGIGKGDYVMLTLKSRYDFWYCMLGLHKLGAIAVPATHMLKTRDIVYRIEKAGLKMIVCIAEDDVPEQVDEAHAECGDIPLKKAKVGGDVLEGWIDFRKELEESSPIFERPTGEVSTKNEDICLVYFSSGTAGFPKMVEHDNTYPLGHILTAKYWQNVEDDGLHYTVADSGWGKCVWGKLYGQWIAGCAVFVYDYDRFEAKNMLEKASKYGVTTFCAPPTIYRFLIKEDLSHYNFSTLKYAVVAGEPLNPEVFNRFLEFTGIKLMEGFGQTETVVTIATFPWMEPKPGSIGKPTPGYKIELMDRDGRLCEVGEEGEIVINTMEGKPVGLFVHYGKDPERTEETWHDGYYHTGDMAWMDEDGYLWFVGRADDIIKTSGYKVGPFEVESALIQHPAVLECAITGVPDPVRGQVIKATIVLTKDYTPSDSLKNELQDHVRNVTAPYKYPRIIEFVPELPKTISGKIRRVEIRDKDQSQ
notes: as for B2
Regarding B5, in data set [4], the Km came out at 7180 ± 290 µM and the kcat was found to be 1.07 ± 0.02 s⁻¹.
